Results reported in patent US20210388079A1 (IMMATICS BIOTECHNOLOGIES, published 2021).
Where two headings read alike, the source gives them in different places. One block for each binder: values may come before it.

Legend:
Test in all cases: cell-based or functional assay
[1] = target: T1, HLA-A*02-presented SPINK2-001 on target cells (T2 cells loaded with SPINK2-001 peptide); A375 cells … (human)
[2] = target: T1, HLA-A*02-presented SPINK2-001 on target …; remark: listed apart in the source
[3] = target: T1, HLA-A*02-presented SPINK2-001 on target …; remark: listed apart in the source

EC50 (read off the curve), IFNγ release, donor TCRA-0023 [1]: ~0.6 nM | EC50 (read off the curve), IFNγ release, donor TCRA-0024 [1]: ~1 nM
B1: TCR R44P3E7, alpha and beta chains expressed in human primary CD8+ T-cells by RNA electroporation (TCR, V domains shown)
V domain 1: RGEDVEQSLFLSVREGDSSVINCTYTDSSSTYLYWYKQEPGAGLQLLTYIFSNMDMKQDQRLTVLLNKKDKHLSLRIADTQTGDSAIYFCAEINNNARLMFGDGTQLVVKP
V domain 2: AAGVIQSPRHLIKEKRETATLKCYPIPRHDTVYWYQQGPGQDPQFLISFYEKMQSDKGSIPDRFSAQQFSDYHSELNMSSLELGDSALYFCASSPPDQNTQYFGPGTRLTVLE

EC50 (read off the curve), IFNγ release, donor TCRA-0023 [2]: ~10 nM | EC50 (read off the curve), IFNγ release, donor TCRA-0024 [2]: ~50 nM
B2: TCR R59P2A7, alpha and beta chains expressed in human primary CD8+ T-cells by RNA electroporation (TCR, V domains shown)
V domain 1: QKEVEQNSGPLSVPEGAIASLNCTYSDRGSQSFFWYRQYSGKSPELIMSIYSNGDKEDGRFTAQLNKASQYVSLLIRDSQPSDSATYLCAVQPHDMRFGAGTRLTVKP
V domain 2: SQTIHQWPATLVQPVGSPLSLECTVEGTSNPNLYWYRQAAGRGLQLLFYSVGIGQISSEVPQNLSASRPQDRQFILSSKKLLLSDSGFYLCAWSGLVAEQFFGPGTRLTVLE

EC50 (read off the curve), IFNγ release, donor TCRA-0024 [3]: ~3 nM
B3: TCR R40P1C2, alpha and beta chains expressed in human primary CD8+ T-cells by RNA electroporation (TCR, V domains shown)
V domain 1: QTVTQSQPEMSVQEAETVTLSCTYDTSESDYYLFWYKQPPSRQMILVIRQEAYKQQNATENRFSVNFQKAAKSFSLKISDSQLGDAAMYFCAYLNYQLIWGAGTKLIIKP
V domain 2: EPEVTQTPSHQVTQMGQEVILRCVPISNHLYFYWYRQILGQKVEFLVSFYNNEISEKSEIFDDQFSVERPDGSNFTLKIRSTKLEDSAMYFCASSEMTAVGQYFGPGTRLTVTE
